Data reported in patent publication US20140274782A1, “AFFINITY REAGENTS AND METHODS FOR DETECTION, PURIFICATION, AND PROTEOMIC ANALYSIS OF METHYLATED PROTEINS” (The Board of Trustees of the Leland Stanford Junior …, priority 2013, published 2014).

T1: G9a and GLP (Homo sapiens, UniProt Q96KQ7+Q9H9B1)
T1 sequence (Q96KQ7 2-1210 limits assumed): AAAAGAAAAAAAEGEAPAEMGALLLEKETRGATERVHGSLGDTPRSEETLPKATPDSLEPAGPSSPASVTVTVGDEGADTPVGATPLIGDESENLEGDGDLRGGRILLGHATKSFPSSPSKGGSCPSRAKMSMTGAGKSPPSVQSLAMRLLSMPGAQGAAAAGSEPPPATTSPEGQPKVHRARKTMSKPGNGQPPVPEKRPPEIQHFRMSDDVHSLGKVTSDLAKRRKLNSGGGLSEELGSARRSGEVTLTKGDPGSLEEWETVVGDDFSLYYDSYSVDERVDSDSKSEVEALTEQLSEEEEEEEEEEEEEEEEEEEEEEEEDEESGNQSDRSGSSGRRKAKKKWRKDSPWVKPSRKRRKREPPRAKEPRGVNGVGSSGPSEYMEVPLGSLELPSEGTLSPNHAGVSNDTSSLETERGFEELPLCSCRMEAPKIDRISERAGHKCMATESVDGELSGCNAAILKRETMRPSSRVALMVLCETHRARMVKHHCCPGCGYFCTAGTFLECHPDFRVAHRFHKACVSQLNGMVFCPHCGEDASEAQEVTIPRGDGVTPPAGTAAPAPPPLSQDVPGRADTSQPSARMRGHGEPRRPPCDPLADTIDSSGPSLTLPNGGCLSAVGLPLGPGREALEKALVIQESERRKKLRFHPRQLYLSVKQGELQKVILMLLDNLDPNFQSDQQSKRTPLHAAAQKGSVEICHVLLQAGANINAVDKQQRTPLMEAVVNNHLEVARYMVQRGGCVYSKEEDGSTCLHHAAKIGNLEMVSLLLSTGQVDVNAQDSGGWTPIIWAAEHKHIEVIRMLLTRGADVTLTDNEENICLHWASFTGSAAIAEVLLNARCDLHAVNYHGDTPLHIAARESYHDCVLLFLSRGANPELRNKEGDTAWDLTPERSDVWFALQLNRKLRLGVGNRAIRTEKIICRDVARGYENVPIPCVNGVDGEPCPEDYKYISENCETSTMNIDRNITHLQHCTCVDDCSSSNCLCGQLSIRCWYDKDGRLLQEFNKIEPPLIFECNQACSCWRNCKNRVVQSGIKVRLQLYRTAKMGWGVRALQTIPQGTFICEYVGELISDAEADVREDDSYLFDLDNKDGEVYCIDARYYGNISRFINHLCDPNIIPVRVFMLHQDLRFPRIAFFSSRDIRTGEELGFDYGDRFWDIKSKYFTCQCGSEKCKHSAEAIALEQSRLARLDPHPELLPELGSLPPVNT
T1 sequence (Q9H9B1 2-1298 limits assumed): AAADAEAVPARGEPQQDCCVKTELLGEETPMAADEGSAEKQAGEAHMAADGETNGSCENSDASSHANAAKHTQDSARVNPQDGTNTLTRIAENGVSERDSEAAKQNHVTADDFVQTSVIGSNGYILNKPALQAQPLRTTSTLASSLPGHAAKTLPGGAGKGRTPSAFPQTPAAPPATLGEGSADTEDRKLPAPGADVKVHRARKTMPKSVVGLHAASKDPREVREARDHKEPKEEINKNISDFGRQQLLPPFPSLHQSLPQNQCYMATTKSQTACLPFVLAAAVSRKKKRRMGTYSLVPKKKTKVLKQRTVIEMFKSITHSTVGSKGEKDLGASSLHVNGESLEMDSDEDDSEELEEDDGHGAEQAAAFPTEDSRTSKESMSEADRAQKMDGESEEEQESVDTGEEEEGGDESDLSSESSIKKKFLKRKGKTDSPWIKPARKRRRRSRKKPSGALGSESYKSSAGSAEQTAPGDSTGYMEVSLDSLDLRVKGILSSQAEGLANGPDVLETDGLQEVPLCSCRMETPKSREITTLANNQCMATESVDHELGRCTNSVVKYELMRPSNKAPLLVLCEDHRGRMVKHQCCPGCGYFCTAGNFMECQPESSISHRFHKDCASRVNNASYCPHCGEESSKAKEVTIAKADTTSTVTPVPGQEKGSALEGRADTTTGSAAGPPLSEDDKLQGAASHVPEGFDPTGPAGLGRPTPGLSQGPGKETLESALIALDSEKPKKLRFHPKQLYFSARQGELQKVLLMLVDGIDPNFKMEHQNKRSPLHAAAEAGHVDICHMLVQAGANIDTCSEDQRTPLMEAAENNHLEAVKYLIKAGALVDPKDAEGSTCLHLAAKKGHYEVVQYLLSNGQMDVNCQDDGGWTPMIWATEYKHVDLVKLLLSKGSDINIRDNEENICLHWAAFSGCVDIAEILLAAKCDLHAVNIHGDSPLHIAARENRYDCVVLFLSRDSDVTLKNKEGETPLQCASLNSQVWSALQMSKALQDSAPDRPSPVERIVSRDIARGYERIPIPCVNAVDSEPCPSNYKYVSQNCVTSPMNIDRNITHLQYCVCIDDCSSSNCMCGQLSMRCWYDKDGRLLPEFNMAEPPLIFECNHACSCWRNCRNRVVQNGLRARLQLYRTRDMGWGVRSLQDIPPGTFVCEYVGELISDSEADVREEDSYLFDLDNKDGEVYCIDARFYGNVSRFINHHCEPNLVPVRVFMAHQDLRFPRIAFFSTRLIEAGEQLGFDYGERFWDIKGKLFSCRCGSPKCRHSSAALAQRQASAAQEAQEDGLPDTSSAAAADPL

B1: CTTN (protein, UniProt Q14247 1-550, looked up)
Src substrate cortactin: MWKASAGHAVSIAQDDAGADDWETDPDFVNDVSEKEQRWGAKTVQGSGHQEHINIHKLRENVFQEHQTLKEKELETGPKASHGYGGKFGVEQDRMDKSAVGHEYQSKLSKHCSQVDSVRGFGGKFGVQMDRVDQSAVGFEYQGKTEKHASQKDYSSGFGGKYGVQADRVDKSAVGFDYQGKTEKHESQRDYSKGFGGKYGIDKDKVDKSAVGFEYQGKTEKHESQKDYVKGFGGKFGVQTDRQDKCALGWDHQEKLQLHESQKDYKTGFGGKFGVQSERQDSAAVGFDYKEKLAKHESQQDYSKGFGGKYGVQKDRMDKNASTFEDVTQVSSAYQKTVPVEAVTSKTSNIRANFENLAKEKEQEDRRKAEAERAQRMAKERQEQEEARRKLEEQARAKTQTPPVSPAPQPTEERLPSSPVYEDAASFKAELSYRGPVSGTEPEPVYSMEAADYREASSQQGLAYATEAVYESAEAPGHYPAEDSTYDEYENDLGITAVALYDYQAAGDDEISFDPDDIITNIEMIDDGWWRGVCKGRYGLFPANYVELRQ
B2: PCBP2 (protein, UniProt Q15366 1-365, looked up)
Poly(rC)-binding protein 2: MDTGVIEGGLNVTLTIRLLMHGKEVGSIIGKKGESVKKMREESGARINISEGNCPERIITLAGPTNAIFKAFAMIIDKLEEDISSSMTNSTAASRPPVTLRLVVPASQCGSLIGKGGCKIKEIRESTGAQVQVAGDMLPNSTERAITIAGIPQSIIECVKQICVVMLETLSQSPPKGVTIPYRPKPSSSPVIFAGGQDRYSTGSDSASFPHTTPSMCLNPDLEGPPLEAYTIQGQYAIPQPDLTKLHQLAMQQSHFPMTHGNTGFSGIESSSPEVKGYWGLDASAQTTSHELTIPNDLIGCIIGRQGAKINEIRQMSGAQIKIANPVEGSTDRQVTITGSAASISLAQYLINVRLSSETGGMGSS
B3: RBMX (protein, UniProt P38159 1-391, looked up)
RNA-binding motif protein, X …: MVEADRPGKLFIGGLNTETNEKALEAVFGKYGRIVEVLLMKDRETNKSRGFAFVTFESPADAKDAARDMNGKSLDGKAIKVEQATKPSFESGRRGPPPPPRSRGPPRGLRGGRGGSGGTRGPPSRGGHMDDGGYSMNFNMSSSRGPLPVKRGPPPRSGGPPPKRSAPSGPVRSSSGMGGRAPVSRGRDSYGGPPRREPLPSRRDVYLSPRDDGYSTKDSYSSRDYPSSRDTRDYAPPPRDYTYRDYGHSSSRDDYPSRGYSDRDGYGRDRDYSDHPSGGSYRDSYESYGNSRSAPPTRGPPPSYGGSSRYDDYSSSRDGYGGSRDSYSSSRSDLYSSGRDRVGRQERGLPPSMERGYPPPRDSYSSSSRGAPRGGGRGGSRSDRGGGRSRY
B4: HNRNPA1 (protein, UniProt P09651 1-372, looked up)
Heterogeneous nuclear …: MSKSESPKEPEQLRKLFIGGLSFETTDESLRSHFEQWGTLTDCVVMRDPNTKRSRGFGFVTYATVEEVDAAMNARPHKVDGRVVEPKRAVSREDSQRPGAHLTVKKIFVGGIKEDTEEHHLRDYFEQYGKIEVIEIMTDRGSGKKRGFAFVTFDDHDSVDKIVIQKYHTVNGHNCEVRKALSKQEMASASSSQRGRSGSGNFGGGRGGGFGGNDNFGRGGNFSGRGGFGGSRGGGGYGGSGDGYNGFGNDGGYGGGGPGYSGGSRGYGSGGQGYGNQGSGYGGSGSYDSYNNGGGGGFGGGSGSNFGGGGSYNDFGNYNNQSSNFGPMKGGNFGGRSSGPYGGGGQYFAKPRNQGGYGGSSSSSSYGSGRRF
B5: ILF3 (protein, UniProt Q12906 1-894, looked up)
Interleukin enhancer-binding …: MRPMRIFVNDDRHVMAKHSSVYPTQEELEAVQNMVSHTERALKAVSDWIDEQEKGSSEQAESDNMDVPPEDDSKEGAGEQKTEHMTRTLRGVMRVGLVAKGLLLKGDLDLELVLLCKEKPTTALLDKVADNLAIQLAAVTEDKYEILQSVDDAAIVIKNTKEPPLSLTIHLTSPVVREEMEKVLAGETLSVNDPPDVLDRQKCLAALASLRHAKWFQARANGLKSCVIVIRVLRDLCTRVPTWGPLRGWPLELLCEKSIGTANRPMGAGEALRRVLECLASGIVMPDGSGIYDPCEKEATDAIGHLDRQQREDITQSAQHALRLAAFGQLHKVLGMDPLPSKMPKKPKNENPVDYTVQIPPSTTYAITPMKRPMEEDGEEKSPSKKKKKIQKKEEKAEPPQAMNALMRLNQLKPGLQYKLVSQTGPVHAPIFTMSVEVDGNSFEASGPSKKTAKLHVAVKVLQDMGLPTGAEGRDSSKGEDSAEETEAKPAVVAPAPVVEAVSTPSAAFPSDATAEQGPILTKHGKNPVMELNEKRRGLKYELISETGGSHDKRFVMEVEVDGQKFQGAGSNKKVAKAYAALAALEKLFPDTPLALDANKKKRAPVPVRGGPKFAAKPHNPGFGMGGPMHNEVPPPPNLRGRGRGGSIRGRGRGRGFGGANHGGYMNAGAGYGSYGYGGNSATAGYSQFYSNGGHSGNASGGGGGGGGGSSGYGSYYQGDNYNSPVPPKHAGKKQPHGGQQKPSYGSGYQSHQGQQQSYNQSPYSNYGPPQGKQKGYNHGQGSYSYSNSYNSPGGGGGSDYNYESKFNYSGSGGRSGGNSYGSGGASYNPGSHGGYGGGSGGGSSYQGKQGGYSQSNYNSPGSGQNYSGPPSSYQSSQGGYGRNADHSMNYQYR

Legend:
3×MBT domain of L3MBTL1 = assay: Triple SILAC pull-down, 3xMBT/3xMBTD355N ratio (cytoplasmic, nuclear and chromatin fractions of 293T cells); type: binding, human; details: SILAC ratio, pull-down 3xMBT vs 3xMBTD355N; for 3xMBT/D355N UNC Heavy: experiment with UNC0638 in heavy SILAC media; for 3xMBT/D355N UNC Light: experiment with UNC0638 in light SILAC media;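 for all read-outs here: proteins quantified with MaxQuant, requiring at least two unique peptides and quantification in both label directions, normalized to the mean of proteins from a digested loading control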
G9a and GLP = target: T1, G9a and GLP; assay: Triple SILAC pull-down after UNC0638 treatment of 293T cells, DMSO/UNC0638 ratio of protein captured by 3×MBT; type: cell-based; parameters: cells were treated for 24 hours with UNC0638 at 2.5 μM or DMSO vehicle control; endogenous in cells; host or cells: HEK 293T; details: for Relative to UNC0638 UNC Heavy / Relative to UNC0638 UNC Light: SILAC ratio DMSO/UNC0638 of protein pulled down with 3xMBT; for Relative to UNC0638 UNC Heavy: UNC0638 in heavy SILAC media; for Relative to UNC0638 UNC Light: UNC0638 in light SILAC media; for Relative to UNC0638 Average: average of UNC Light and UNC Heavy experiments;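 for all read-outs here: mass spectrometry (Q-Exactive) SILAC quantitation, DMSO/UNC0638 ratio computed after subtracting 3×MBTD355N mutant pull-down background, only proteins with at least twofold 3×MBT over mutant signal considered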

Molecule | 3xMBT/D355N UNC Heavy (3×MBT domain of L3MBTL1) [log base 2] | 3xMBT/D355N UNC Light (3×MBT domain of L3MBTL1) [log base 2] | Relative to UNC0638 UNC Heavy (G9a and GLP) [log base 2] | Relative to UNC0638 UNC Light (G9a and GLP) [log base 2] | Relative to UNC0638 Average (G9a and GLP) [log base 2]
B1 | 1.52 | 2.75 | 0.26 | 0.08 | 0.17
B2 | 1.88 | 2.41 | 0.13 | 0.21 | 0.17
B3 | 3.98 | 4.49 | 0.11 | 0.24 | 0.17
B4 | 3.75 | 4.25 | 0.09 | 0.25 | 0.17
B5 | 3.53 | 4.28 | 0.11 | 0.23 | 0.17
